According to US20050100551A1:

Tests used:
Herceptin [1] = test: inhibition ELISA: herceptin preincubated with KLH alone, binding to SKBR3 membranes (Her-2/neu)
Herceptin [2] = test: inhibition ELISA: herceptin preincubated with wild-type phage, binding to SKBR3 membranes (Her-2/neu)

Row | Substance | Percent inhibition in comparison to uninhibited herceptin control (Herceptin [1]) [%] | Percent inhibition in comparison to uninhibited herceptin control (Herceptin [2]) [%]
1 | KLH (from UniProt Q10583 17-3414) | 0 | –
2 | Wild-type phage | – | 3
